Reference: patent US20240400715A1 (VIBRANT PHARMA, published 2024)

Experiments:
[1] = biological target: T1, human EGFR on tumor cells (human, UniProt P00533 25-1210); experiment: cell-based or functional assay
[2] = biological target: T1, human EGFR on tumor cells; experiment: cell-based or functional assay; remark: listed apart in the source
[3] = biological target: T2, keyhole limpet haemocyanin (KLH, Sigma, H8283) (keyhole limpet, UniProt Q10583 17-3414; Q10584 20-3421, limits assumed); experiment: ELISA, KLH coated at 5 ug/mL, 100 nM antibody, anti-human IgG-HRP
T2 construct: Bought preparation coated on the plate in the polyspecificity ELISA
Procedure: (§1) (1) Antigen coating: cardiolipin (Sigma, cat. C0563), keyhole limpet haemocyanin (KLH, Sigma, H8283), LPS (Sigma, L6529), ssDNA (Sigma, D8899), dsDNA (Sigma, D4522) and Insulin (abs42019847) were plated at 50 μg/mL, 5 μg/mL, 10 μg/mL, 1 μg/mL, 1 μg/mL, g/mL, and 50 μL per well, and incubated at 4° C. overnight;
(§2) (4) 50 μl anti-human IgG-HRP conjugate (Sigma, AP113P, 1:8000 dilution) was added to each well; the plate was incubated for 1 h at room temperature and washed 6 times with 0.05% PBST;

Insulin (abs42019847) = biological target: T3, Insulin (abs42019847); experiment: ELISA, insulin coated on the plate, 100 nM antibody, anti-human IgG-HRP
T3 construct: Coated on the plate in the polyspecificity ELISA
Procedure: as §1, §2

B1: EGFR-CD3 bispecific antibody 401 (bispecific antibody, human IgG4 S228P, kappa, F234A L235A)
heavy: EVKLLESGGGLVQPKGSLKLSCAASGFTFNTYAMNWVRQAPGKGLEWVARIRSKYNNYATYYADSVKDRFTISRDDSQSILYLQMNNLKTEDTAMYYCVRHGNFGNSYVSWFAYWGQGTLVTVSSASTKGPSVFPLAPCSRSTSESTAALGCLVKDYFPEPVTVSWNSGALTSGVHTFPAVLQSSGLYSLSSVVTVPSSSLGTKTYTCNVDHKPSNTKVDKRVESKYGPPCPPCPAPEAAGGPSVFLFPPKPKDTLMISRTPEVTCVVVDVSQEDPEVQFNWYVDGVEVHNAKTKPREEQFNSTYRVVSVLTVLHQDWLNGKEYKCKVSNKGLPSSIEKTISKAKGQPREPQVYTLPPCQEEMTKNQVSLWCLVKGFYPSDIAVEWESNGQPENNYKTTPPVLDSDGSFFLYSRLTVDKSRWQEGNVFSCSVMHEALHNHYTQKSLSLSL
chain: QVQLQESGGGSVQAGGSLKLSCAASGRGFSRYAMGWFRQAPGQDREFVATISWTNSTDYADSVKGRFAISRDNAKNTAYLQMNSLKPEDTAVYYCAADKWASSTRSIDYDYWGQGIQVTVSSESKYGPPCPPCPAPEAAGGPSVFLFPPKPKDTLMISRTPEVTCVVVDVSQEDPEVQFNWYVDGVEVHNAKTKPREEQFNSTYRVVSVLTVLHQDWLNGKEYKCKVSNKGLPSSIEKTISKAKGQPREPQVCTLPPSQEEMTKNQVSLSCAVKGFYPSDIAVEWESNGQPENNYKTTPPVLDSDGSFFLVSRLTVDKSRWQEGNVFSCSVMHEALHNRFTQKSLSLSL
light: QAVVTQESALTTSPGETVTLTCRSSTGAVTTSNYANWVQEKPDHLFTGLIGGTNKRAPGVPARFSGSLIGDKAALTITGAQTEDEAIYFCALWYSNLWVFGGGTKVEIKRTVAAPSVFIFPPSDEQLKSGTASVVCLLNNFYPREAKVQWKVDNALQSGNSQESVTEQDSKDSTYSLSSTLTLSKADYEKHKVYACEVTHQGLSSPVTKSFNRGEC
For B1, the “EC50 of tumor cell killing, MDA-MB-468 cells with human PBMC (E:T 10:1, 3 days, CCK8)” value [1] was 0.0208 pM, the “EC50 of tumor cell killing, NCI-H1573 cells with human PBMC (E:T 10:1, 3 days, CCK8)” value [1] was 5.83 pM and the “EC50 of tumor cell killing, NCI-H1650 cells with human PBMC (E:T 10:1, 3 days, CCK8)” value [1] was 98.6 pM. For the same binder, the “EC50 of tumor cell killing, NCI-H2228 cells with human PBMC (E:T 10:1, 3 days, CCK8)” value [1] was 114 pM, the “EC50 of tumor cell killing, SK-OV-3 cells with human PBMC (E:T 10:1, 3 days, CCK8)” value [1] was 11.3 pM and the “EC50 of tumor cell killing, MCF-7 cells with human PBMC (E:T 10:1, 3 days, CCK8)” value [2] was 206 pM. The “EC50 of tumor cell killing, N87 cells with human PBMC (E:T 10:1, 3 days, CCK8)” value [2] was 1310 pM, the “EC50 of tumor cell killing, NCI-H157 cells with human PBMC (E:T 10:1, 3 days, CCK8)” value [2] was 10000 pM and the “EC50 of tumor cell killing, NCI-H441 cells with human PBMC (E:T 10:1, 3 days, CCK8)” value [2] was 5.38 pM. The “Absorbance value (450 nm, polyspecificity ELISA)” value [3] was 0.96 and the “Absorbance value (450 nm, polyspecificity ELISA)” value (Insulin (abs42019847)) was 1.01.
